{"source": "patent US20170267736A1"}
{"target": "human IGF-IR expressed on recombinant NIH-3T3 cells (human) (UniProt P08069)", "sequence (P08069 31-1367)": "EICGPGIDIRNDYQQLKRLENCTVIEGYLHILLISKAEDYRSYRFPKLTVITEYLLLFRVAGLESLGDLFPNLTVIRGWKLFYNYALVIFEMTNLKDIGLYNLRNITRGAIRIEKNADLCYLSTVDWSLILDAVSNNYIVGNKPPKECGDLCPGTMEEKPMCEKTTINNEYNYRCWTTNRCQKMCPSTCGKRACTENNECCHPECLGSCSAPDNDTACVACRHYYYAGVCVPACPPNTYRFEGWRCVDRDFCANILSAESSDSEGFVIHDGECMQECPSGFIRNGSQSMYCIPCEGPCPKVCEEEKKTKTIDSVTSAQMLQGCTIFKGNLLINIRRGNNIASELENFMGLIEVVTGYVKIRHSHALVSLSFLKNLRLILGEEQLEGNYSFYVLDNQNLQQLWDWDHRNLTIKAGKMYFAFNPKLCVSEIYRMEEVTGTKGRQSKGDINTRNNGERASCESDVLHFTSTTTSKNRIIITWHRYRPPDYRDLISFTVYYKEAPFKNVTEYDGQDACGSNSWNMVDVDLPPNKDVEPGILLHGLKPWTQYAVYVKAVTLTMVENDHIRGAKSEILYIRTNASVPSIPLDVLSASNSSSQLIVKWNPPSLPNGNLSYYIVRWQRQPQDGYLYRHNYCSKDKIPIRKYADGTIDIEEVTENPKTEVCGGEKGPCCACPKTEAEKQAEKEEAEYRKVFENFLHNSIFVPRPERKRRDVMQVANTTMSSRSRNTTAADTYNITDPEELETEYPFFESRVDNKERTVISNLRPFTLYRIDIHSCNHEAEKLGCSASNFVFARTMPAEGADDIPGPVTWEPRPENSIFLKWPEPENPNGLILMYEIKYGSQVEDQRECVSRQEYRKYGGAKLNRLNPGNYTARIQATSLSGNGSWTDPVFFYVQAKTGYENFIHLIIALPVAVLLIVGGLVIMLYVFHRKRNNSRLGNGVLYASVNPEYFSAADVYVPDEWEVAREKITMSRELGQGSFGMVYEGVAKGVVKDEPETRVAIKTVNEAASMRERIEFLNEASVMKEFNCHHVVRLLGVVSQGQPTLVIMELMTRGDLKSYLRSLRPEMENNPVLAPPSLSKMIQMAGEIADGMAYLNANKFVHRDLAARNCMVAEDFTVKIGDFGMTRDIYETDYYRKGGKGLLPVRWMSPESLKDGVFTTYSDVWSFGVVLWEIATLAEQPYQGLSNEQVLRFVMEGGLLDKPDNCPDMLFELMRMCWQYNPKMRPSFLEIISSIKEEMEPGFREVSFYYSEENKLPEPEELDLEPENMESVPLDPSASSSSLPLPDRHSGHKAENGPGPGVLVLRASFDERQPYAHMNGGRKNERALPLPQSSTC", "assay": "cell-based or functional assay", "units": {"Activation of IGF-1R (phospho-IGF-IR ELISA), EC50 [nM]": "nM"}}
{"substance": "rhIGF-I (K27R, K65R) (from UniProt P05019 49-118) (ligand)", "Activation of IGF-1R (phospho-IGF-IR ELISA), EC50 [nM]": 1.2}
{"substance": "wt-rhIGF - trypsin site - Strep-Tag (ligand)", "Activation of IGF-1R (phospho-IGF-IR ELISA), EC50 [nM]": 1.7}
{"substance": "wt-rhIGF-I - YRHAK MCa PEG20000 (from UniProt P05019 49-118) (ligand)", "Activation of IGF-1R (phospho-IGF-IR ELISA), EC50 [nM]": 18.4}
